No end group written: not given here.
% conv. at 24 h (covalent modification with diazo 1, MALDI-TOF MS) (E3gX, X = Asp): 53 % conv. | % conv. at 24 h (covalent modification with diazo 1, MALDI-TOF MS) (E3gX, X = His): 17 % conv. | % conv. at 24 h (covalent modification with diazo 1, MALDI-TOF MS) (E3gX, X = Arg): 73 % conv. | % conv. at 24 h (covalent modification with diazo 1, MALDI-TOF MS) (E3gX, X = Asn): 70 % conv. | % conv. at 24 h (covalent modification with diazo 1, MALDI-TOF MS) (E3gX, X = Tyr): > 95 % conv. | % conv. at 24 h (covalent modification with diazo 1, MALDI-TOF MS) (E3gX, X = Phe): > 95 % conv. | % conv. at 24 h (covalent modification with diazo 1, MALDI-TOF MS) (E3gX, X = Cys): 78 % conv. | % conv. at 24 h (covalent modification with diazo 1, MALDI-TOF MS) (E3gX, X = Glu): 76 % conv. | % conv. at 24 h (covalent modification with diazo 1, MALDI-TOF MS) (E3gX, X = Lys): 8 % conv. | % conv. at 24 h (covalent modification with diazo 1, MALDI-TOF MS) (E3gX, X = Trp): > 95 % conv. | % conv. at 24 h (covalent modification with diazo 1, MALDI-TOF MS) (E3gX, X = Ser): 28 % conv. | % conv. at 24 h (covalent modification with diazo 1, MALDI-TOF MS) (E3gX, X = Gln): > 95 % conv.
B1: K3a,eRh2 (peptide)
peptide: KISALKQKESALEQKISALEK
modifications: also: Rh2(OAc)2 dirhodium centre bound through two Glu side chains, places not given here
